Data reported in paper PMC10920922.

What was measured:
[1] = biological target: TaSG-D1^E286K-GFP (Indian dwarf wheat (Triticum sphaerococcum))
[2] = biological target: TaSG-D1-GFP (wheat (Triticum aestivum))

TaPIF4-Myc (natural protein)
share of TaPIF4 associated with and protected by the kinase after 3 h heat stress: TaPIF4 protein still detectable on co-transformation in N. benthamiana leaves (88%) less that of the control (12%) [1]: 76%
share of TaPIF4 associated with and protected by the kinase after 3 h heat stress: TaPIF4 protein still detectable on co-transformation in N. benthamiana leaves (23%) less that of the control (12%) [2]: 11%
